Data: patent EP2338512A1 (MedImmune, LLC, dated 2011)

What was measured:
[1] = molecular target: T1, RSV F glycoprotein (NUF4) (respiratory syncytial virus (strain not …)); assay: ITC, NUF4 titrated into antibody
[2] = molecular target: T1, RSV F glycoprotein (NUF4); assay: BIAcore, monoclonal antibody vs NUF4 (1:1)
[3] = molecular target: T1, RSV F glycoprotein (NUF4); assay: BIAcore, monoclonal antibody vs NUF4 (2:1)
Bac-F = assay: BIAcore, monoclonal antibody vs Bac-F (1:1)

B1: A4B4 (monoclonal antibody) (antibody, V domains shown)
VH: QVTLRESGPALVKPTQTLTLTCTFSGFSLSTAGMSVGWIRQPPGKALEWLADIWWDDKKHYNPSLKDRLTISKDTSKNQVVLKVTNMDPADTATYYCARDMIFNFYFDVWGQGTTVTVSS
VL: DIQMTQSPSTLSASVGDRVTITCSASSRVGYMHWYQQKPGKAPKLLIYDTFFLDSGVPSRFSGSGSGTEFTLTISSLQPDDFATYYCFQGSGYPFTFGGGTKLEIK
[1]
  ΔHb: 22.2 kcal/mol
[2]
  number in parentheses after KD (ratio to SYNAGIS, which has 1): 15 fold
[3]
  number in parentheses after KD (ratio to SYNAGIS, which has 1): 156 fold
Bac-F
  number in parentheses after KD (ratio to SYNAGIS, which has 1): 195 fold
